Consider one molecule from patent CN114409779A.

The assay has as its target 重组人NogoA蛋白 (recombinant human NogoA protein) (human) (UniProt Q9NQC3). Briefly: BLI (Gator label-free analyser), antibody captured on Protein A probe, NogoA at 10, 5, 2.5 and 0 ug/mL.
Sequence of UniProt Q9NQC3 (Q9NQC3 1055-1120 limits assumed): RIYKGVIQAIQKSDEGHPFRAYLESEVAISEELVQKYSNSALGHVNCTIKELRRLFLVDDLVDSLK

B1: NogoAD1-1 (antibody, part only; not given: Light chain variable domain, V domains shown, part only)
VH: EVLLVESQQTPVKPGGSLKASCAGSQSVFLTAAYSWVRPTPEKLLEWVATISYGSPNTYYPDSVKGRYNEKFKGKATLTVETSSSTAYMQLSSLTSEDTAVYFCARRSYGEDSWFSYWGQGTLVTVSS
Consider B1, for which the Kd worked out at 8.2 pM.
